According to patent US20040265963A1:

What was measured:
[1] = target: T1, biotinylated phosphorylated JAK2 WT peptide (p-JAK2 WT) (human (the JAK2 WT sequence is the same for both mice and humans)); assay: solid phase binding assay, biotinylated peptide on immobilized Tkip (FIG. 4)
T1 chain: LPQDKEYYKVKEP

[2] = target: Recombinant human JAK2 immobilized on agarose beads (human), O60674; assay: cell-based or functional assay
Recombinant human JAK2 immobilized on agarose beads (human), O60674, sequence (O60674 whole entry): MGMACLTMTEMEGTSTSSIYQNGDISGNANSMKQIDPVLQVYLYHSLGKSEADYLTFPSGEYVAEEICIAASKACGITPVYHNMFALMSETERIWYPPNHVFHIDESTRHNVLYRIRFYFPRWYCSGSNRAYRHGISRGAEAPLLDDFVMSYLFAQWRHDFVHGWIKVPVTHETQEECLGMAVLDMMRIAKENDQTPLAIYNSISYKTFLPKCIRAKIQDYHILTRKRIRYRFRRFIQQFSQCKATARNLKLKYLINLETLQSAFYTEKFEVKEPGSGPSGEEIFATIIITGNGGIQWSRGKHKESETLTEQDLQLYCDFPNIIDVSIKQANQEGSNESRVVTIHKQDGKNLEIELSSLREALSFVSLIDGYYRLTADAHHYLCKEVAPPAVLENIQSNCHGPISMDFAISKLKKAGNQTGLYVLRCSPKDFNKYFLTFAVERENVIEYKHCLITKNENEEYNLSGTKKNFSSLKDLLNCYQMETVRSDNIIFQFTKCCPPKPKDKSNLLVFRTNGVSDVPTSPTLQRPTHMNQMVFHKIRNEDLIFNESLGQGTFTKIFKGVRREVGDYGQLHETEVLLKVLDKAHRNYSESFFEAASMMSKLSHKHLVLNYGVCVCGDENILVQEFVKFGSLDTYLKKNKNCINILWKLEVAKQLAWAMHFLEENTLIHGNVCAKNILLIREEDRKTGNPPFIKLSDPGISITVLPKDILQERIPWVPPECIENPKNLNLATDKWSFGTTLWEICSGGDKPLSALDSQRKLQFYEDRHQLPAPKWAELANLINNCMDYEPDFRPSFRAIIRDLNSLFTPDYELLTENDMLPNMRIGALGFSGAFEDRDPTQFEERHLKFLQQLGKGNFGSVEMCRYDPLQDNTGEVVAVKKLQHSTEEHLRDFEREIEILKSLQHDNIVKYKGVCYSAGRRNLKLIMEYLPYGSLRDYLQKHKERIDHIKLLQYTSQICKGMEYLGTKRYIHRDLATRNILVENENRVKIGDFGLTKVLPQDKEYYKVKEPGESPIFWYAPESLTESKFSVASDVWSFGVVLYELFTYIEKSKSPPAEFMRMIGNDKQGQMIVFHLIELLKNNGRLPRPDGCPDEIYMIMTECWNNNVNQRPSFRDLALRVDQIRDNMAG

fold lower fifty percent endpoint concentration against unphosphorylated JAK2 WT [1]: 9 fold | inhibition of 32P incorporation into JAK2/IFNGR-1 (Tkip at 50 µM) [2]: > 95%
Binder: WLVFFVIFYFFR (modifications not checked) [Tkip (tyrosine kinase inhibitor peptide), …]
